Source: patent US20140289906A1, “Compositions Having Dicamba Decarboxylase Activity and Methods of Use” (priority 2013, published 2014)

B1: 62 (protein)
chain: MAVGGKNFRDVTDQVWCPKKRIEDMDREGVDIQVLSPIPVTFSYWAKPEEAESMARIQNDFIAETVLAYPDRFVGLGTVPMQDGETAIREMERCITELNLHGIEIGTNVNGKNLDDPSFIEFFRMAEKWQVPIFIHPWETLGRDRMPHHNFMYTVGMPSETALAAATLIWSGIMEKFPRLKVCFAHGGGSFPYILPRLDQGWKVWPHLRLTTHPPSYYAKKFYFDSLNYDPINLKYMIERFGHEKIFMGSDYPFLLREVDPGKVIDETASLSEEQKAAMLGGNAAEFLNIDIKKRGVAYAESTNT
modifications: Bacillus thuringiensis serovar pulsiensis
B2: 45 (protein)
chain: MANDDLAEVIAAHPDRFAGFAALPMRDPQAAAVELQRAVGTHGFCGAMINGLIEGRFLDDPAFAPLLSTAADLGVPLYLHPSFPPPQVAEIYFGGLAPVLGDLLATAGWGWHAETALHVLRLVATGVFDRLPELWVIVGHMGEMIPFALARIDTVLSPVAQLRQPVAQYFQTNVWFTTSGYTTFPPLQCALSTVGIDRLIFSVDYPYTDNTSARALLDTAPISPVDREKLAHGTVEALLRV
modifications: Mycobacterium sp
B3: 61 (protein, listed as Gordonia amarae)
chain: MATGAGSGVPSPADRVIVRSPGVIDVHAHAVLPMSLGCAGAAGPEIGYREDGSPFFRVGEYVLNGVRYEGSAFMDPEVRVAAMDAAGIGLQMISPNPITYFTRLDARSATDYARAHNDAIAEAAGRHPGRLVGAAQLPMQDVPAAIAELERSVRELGLVAAYIDTDIGDRTLDAPELDDFYSAAVELDVPVFIHPSPVGQEGPPDDTRLRRFDLDLLLGFSYDETLAVAALVFGGVLERHPALDVCLSHGGGTLAFVAGRFARAVAKPRAWVPEFLVENGIESYLRRLWLDTHVHSAGSLRLLIDTVGTDRLVFGTNFAGWDADGATEVDALGDLRETTTANAAHLLRLGRA
B4: 64 (protein, listed as Achromobacter piechaudii)
chain: MAIQKIDMHAHFFPPITRQEAAALDPVNAPWLRPDADGATGQIMAGEREFRPVDATLWDPALRIEQMDRHGVDVQILCATPIMFGYTYPARPAADWAARMNDLALEHCAYAPSRLKALAQVPLQDLELACQEASRARAAGHLGVQIGNHVGPRDLDDETLVQFLIHCANNDIPVLVHPWDMMTDGRMKKWMLPWLVSMPAETQLGILSLILSGAFERIPRSLKLCFAHGGGSFAYLLGRVDNAWRHRDIIRQDCPQLPSSYTDRFYTDSAVFDPRSLRLLIDVMGEDRVLLGSDYPYPLGEQEVGRLVAHAELVPEVQQKILFRNTMTFFGLQPGLQPGLQS
B5: 69 (protein, listed as Microbacterium testaceum)
chain: MATSTEGQDVTDVHAHLLMPGLHAEVERRVPDEVQAAADLELRRNGLASLQASGRMIGERFPRLTDVRARLAAMDEQGVDRQWVSPSPNHFYPWANEGLATWASGEANRLIAEHVALAPDRLVGLGVVPLQHPHLVVDALDDAVLGRGLAGVEISSFAGDVELSDERLESFWARAAELRAVVFLHPFGCSLDERLDRFYLSNTVGQPTENAVALSHLIFSGVLDRHPGLRLIAAHGGGYLPTAIGRSDRAWRVRPEARGCAHAPSTYLSKLWFDTVVHDERALRWLVEAAGADRVLLGSDFPFDMGLDDPVAFVRGAGLQDAEVSGILGGNAAELLRTRVHA
B6: 59 (protein)
chain: MAPSVIDAHAHFLPGSLVTALRSRSDAPDIRTDSNGGESFGIYRTRMPYGRTYDALDVRLARMDELGVDRQILSLPGLFGIDSRPVSQALPLVRAFNDGVADLVRKHPDRFSGIAALPLADLDAAQEEYRRARGDLGLSGLILPGDTFVSVAAAERVRPLFELAATIGGLIFVHPGPLPDETGSAVDAPAPHTDSVVHRRVTVDIQNRMTEVMVTLALTDFLAPYPSVPVQVANLGGSLPFVIERMDHVYALRNPEAPPPSLSLRSLYVDAASLGPRAIALAAEVYGADRVLFGSDYPIFDDGRCLDAVRQTRLSPDARALIAGGNAARMLTQT
modifications: alpha proteobacterium
B7: 37 (protein, listed as Burkholderia gladioli)
chain: MATFSNVKKIALEEHFAIAETIEDSAGFVPPDDWVELRGRLLDIQERRLAEMDRAGIELMVLSLNAPAVQAIRDPRQAVELARRANDYLAEQVARRPDRFRAFAALPMQAPEQAIREAERCVRELGFVGALVNGFSEAEDGAELYYDLPRYRPFWAALEALEVPFYLHPRNPLAGRAPIYDGHSWLMGPTWAFGQETAVHALRLMGSGLFDAHPRLQIILGHMGEGLPYSMWRVDNRNAWVSAKPNYPAEKPIAEYFRNNFWLTTSGNFRTQTLIDAMLEIGSDRILFSADWPFENMDHAADWFDHASISENDRIKIGRGNAERLLKLGR
B8: 38 (protein, listed as Variovorax paradoxus)
chain: MAQGKIGLEEHFAIPQTLQDSAGFVPGVYWKELSSRLLDIHDGRLRQMDEHGMEMMILSLNAPAVQAVADPVKAYELAVRANDFLAEQVAKRPDRFQAFAALPMQDPEKATQELERCMSVLGFRGALVNGFSQVGTPDNVAYYDAPQYAPFWAAAERLDAPFYLHPRNPIASWAQIYEGHPWLLGPTWAFAQETAVHALRLMASGLFDRHPGLKIILGHLGEGLPYNMWRVDHRNAWVKAPKGYPAKRKLCEYFQENFYLTTSGNFRTQTLIDAMLEVGSDRILFSTDWPFENIDHASNWFNDTSISEADRKKIGRTNAMSLFKLA
B9: 70 (protein, listed as Alicyclobacillus acidocaldarius)
chain: MAIEPNRAADVHTHFLPTEVLEFLKREPRIQVDLERRAPDKEPFLTVEGRWSFELKRMFVDFEAFASAYRQAGIGLALVSPLPQLFVYHLPAEMGAQVAEVYNDALRDVLAPHRERFRPLATLPLADPTAAARELERRMDEGFVGAIVGPGVGEALIGDEAFWPLWEVADARRAVLFLHPLLHADPRAARLMLPNLVGVPWETTLAAAHLVLSGLLDRYPGARVLLAHGGGFLPYQIGRIEQGYDVWPQVRGRLQDRPTAYLRRMFYDNVLWSDAALRCLIDVVGADRVLAGSDFPFDLSAWPPRPGADVSVLAGGSGREGRLS
B10: 68 (protein, listed as Hoeflea phototrophica)
chain: MAIIDAHTHTLCPAVNEKVAGTIKPDSVPYQRDMSPESKEQDHTQFPELKIMFNQVERRLADMARMGIDRQVIAPAPGQQHYWAEPKLLAEISALQNDHVAELVARAPDRFAGIGTLPMTDPDAAVAEITRATRELGLRVFQIDSRVMERELSDASLDPIYAALEAAGAGLMIHPLGFSNGERLTPFFMVNSVAQPLEELLAFNHLVFGGVLDRFPKLKVYIAHGGGFAPFYIGRFDHAWKVRPEVNRLTPSAPSTYLRRIYFDTCVYRTDHIETLVRTVGADRVMLGSDYPFDMGDTDPLGLLNACQGLSDDEKATISSKVAIDFFGLET
B11: 39 (protein, listed as Agrobacterium fabrum)
chain: MAQGKVALEEHFAIPETLQDSAGFVPGDCWTELQHRLLDIQDTRLKLMDAHGIETMILSLNAPAVQAIPDKTKAIEIARRANDALAEECAKRPDRFLAFAALPLQDPDAATQELRRCVNDLGFVGALVNGFSQEGDGQTPLYYDLPQYRPFWGEVEKLDVPFYLHPRNPLPQDSRIYDGHPWLLGPTWAFAQETAVHALRLMASGLFDEHPRLDIILGHMGEGLPYMMWRIDHRNAWVKLPPRYPAKRRFVDYFNENFHITTSGNFRTQTLIDAILEIGADRILFSTDWPFENIDHASDWFHATSIAEADRVKIGRTNARRLFKLDGR
B12: 42 (protein)
chain: MAQGKIALEEHFAIPDTLQDSAGFVPGDYWKELSARLLDIHEQRLMQMDAYGIEKMILSLNAPAVQAIPDKAKALEISRRANDFLAEQCARNPDRFLGFAALPLQDPDAATAELQRCVKTLGFVGALVNGFSQEGDGVTPLYYDLPQYRGFWAEVEKLAVPFYLHPRNPLPQDSRIYAGHPWLMGPTWAFAQETAVHALRLVGSGLFDDHPALRIILGHMGEGLPYMMWRIDNRNAWVKVAPNYPAKRRIADYFNENFYITTSGNFRTQSLVDAMLEIGADRILFSTDWPFENIDHASDWFDTATISEADRLKIGRTNAATLFNLES
modifications: Agrobacterium radiobacter
B13: 3 (protein, listed as Lactobacillus plantarum)
chain: MAKLITVEEHFESAAVTAAMRQAVGNAVLPAVSPALRQYMRDNLPSPAIMQDTQHERLAFMAQYGIDMQVLSYGNSSPQNLSPEQAVPLSQLANDELAKAVVAHPDRYAGLAVLPVGDPQAAVAELNRAVTTLGLRGVLLKGNYQNKFFDEPFFLPIFEAAAALDVPVYFHPSFIPQAVTSHYFESNQWSDVVTGILSSAGYGWHMDVGIQVIRMIASGIFDKLPGLKLISGHWGELVPLFLERLDDELTTYTDLQYPFSTYYRHNVYVTPSGILSAPQLQFMLAEMGADHLMYSIDYPYKQPETSGSFLDIADLTDEQRAQIAFGTATTLFKL
B14: 60 (protein, listed as Catenulispora acidiphila)
chain: MARGFVRTAVVPGFWDAGWRGAGQPGGMRVDVHAHLFPAAYLDLLDDFRQDGGVGTREVRALGGGDGERELRLRLAAMDAVGVDVQLLSTCPQGPYTGDPTAAVEAARCANVALAQTVAQYPERLRALAALPLPHILASVDELNRAMEQDGMLGAAVGTSILGRPLSHPDFEPLFAALNRRKGVLFVHPIGESAGSPLMQASKLDRVIGYAAEVSTAILQLFQAGLTVKYPDIRIIAPHMGGYLPFLIQRLDRHRDWYLPKDAPSAGQLMRGIAYDTANPLPAALRLTAEVVGPERLLLGTDYPFEQGPSLRDHIEYILAAGLPEAQAKMIVDVNAADFLDMRSGAEQPPV
B15: 40 (protein, listed as Rhodococcus jostii)
chain: MAQGKIALEEHFAIPETLNDSAGFVPGTYWDELQARLLDIQDVRLKLMDEHNIETMILSLNAPAVQAIPERERAIDIARRANDVLAEECAKRPDRFRGFAALPLQDPDAAAEELRRCVTELGFVGALVNGFSQSATVDGGSTPLYYDLPRYRPFWAEVERLDVPFYLHPRNPLNQDARIYEGHPWLLGPTWAFAQETAVHALRLMASGLFDEHPGLRIVLGHMGEGIPAMLWRIDHRNAWVDVPPAYPAKRRMVDYFTENFFVTTSGNFRTQTLIDLLLELGSERVMFSTDWPFENINHAAEWFDAASISEADRLKIGRTNAATLFKLDR

Assay: 14C assay: 14CO2 capture from [14C]-carboxyl-labeled dicamba with IPTG-induced recombinant E. coli cells
Conditions: IPTG-induced recombinant E. coli cells; 14CO2 from [14C]-carboxyl-labeled dicamba

Molecule | Dicamba Decarboxylase Activity
B1 | No
B2 | No
B3 | No
B4 | Low
B5 | No
B6 | No
B7 | Low
B8 | Low
B9 | Low
B10 | No
B11 | No
B12 | Low
B13 | Low
B14 | No
B15 | Low

Same assay, conditions: dicamba decarboxylation activity

Molecule | Enzymatic Detection level
B1 | No
B2 | No
B3 | No
B4 | Low
B5 | No
B6 | No
B7 | Low
B8 | Low
B9 | Low
B10 | No
B11 | No
B12 | Low
B13 | Low
B14 | No
B15 | Low
